Measurements from the nanobody polyreactivity screen of Harvey et al. (2022).

Experiment: yeast display, Sf9 membrane polyspecificity reagent, FACS + sequencing; frameworks hold sequencing errors
Method in brief: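 Sorting gates, low and high (top ~1%), were placed on anti-HA fluorescence to track expression and on streptavidin fluorescence to track reagent binding. A clone's polyreactivity label is taken from the gate it came out of. The reagent was 10% biotinylated, detergent-solubilized Sf9 membrane, applied for 1 hour at 4 °C to galactose-induced yeast display cells.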

| Sequence | polyreactivity (PSR sort gate) |
| --- | --- |
| QVQLVESGGGLVQAGGSLRLSCAASGRIFIIYAMGWYRQAPGTEREFVAAITSSGGSTYYADSVKGRFTISRDNAKNTVYLQMNSLKPEDTAVYYSAADSTEYTGDASYIGYDYWGQGTQVTVSS | high polyreactivity |
| QVQLVESGGGLVQAGGSLRLSCAASGRIFIKNAMGWNRQAPGKERELVAAISDSGDSTYYADSVKGRFTISRDNAKNSVYLQMNSLKPEDTAVYYCAADGADHRSEMYYWGQGTQVTVSS | low polyreactivity |
| QVQLVESGGGLVQAGGSLRLSCAASGRIFILNTMGWYRQAPGKERELVAGISYSGSTYYADSVKGRFTISRDNAKNTVYLQMNSMKPEDTAVYYCAADYDAAWYNDGYYYWGQGTQVTVSS | low polyreactivity |
| QVQLVESGGGLVQAGGSLRLSCAASGRIFIPYAMAWYRQAPGNERELVAAISSSGGSTYYADSVKGRFTISRDNAKNTVYLQMNSLKPEDTAVYYCSALLYWWYAYETYSSLFEYDYWGQGTLVTVSS | low polyreactivity |
| QVQLVESGGGLVQAGGSLRLSCAASGRIFIRNAMGWYRQAPGKEREFVAAISYGGSTYYADSVKGRFTISRDNAKNTVYLQMNSLKPEDTAVYYCAARVLPYLTPRRQMYYWGQGTQVTVSS | low polyreactivity |
| QVQLVESGGGLVQAGGSLRLSCAASGRIFIRNAMGWYRQAPGKERELVAAITSDGGSTDYADSVKGRFTISRDNAKNTVYLQMNSLIPEDTAVYYCAATGSGYDYWGQGTQVTVSS | low polyreactivity |
| QVQLVESGGGLVQAGGSLRLSCAASGRIFIRYAMGSYRQAPGKERELVAAITYSGGRTYYADSVKGRFTISRDNAKNTVYLQMNSLKPEDTAVYYCAADAPYGEDYWGQGTQVTVSS | high polyreactivity |
| QVQLVESGGGLVQAGGSLRLSCAASGRIFITNTMGWSRPAPGKERELVAAISRTGGSTYYADSVKGRFTISRDNAKNTVYLQMNSLKPEDTAVYYCAKRYYGSPQLRYYYWGQGTQVTVSS | high polyreactivity |
| QVQLVESGGGLVQAGGSLRLSCAASGRIFIVNAMGWYRQAPGKERELVAAIRTGGSNTYYADSVKGRFTISRDNAKNTVSLQMTSLKPEDTAVYYCNARSTRRINYWGQGTQVTVSS | high polyreactivity |
| QVQLVESGGGLVQAGGSLRLSCAASGRIFIYNAMGWYRQAPGKERELVAAISVSGGRTYYADSVKGRFTISRDNAKNTVYLQMNSLKPEDTAVYYCNKVRVGSLRGYWGQGTQVTVSS | high polyreactivity |
| QVQLVESGGGLVQAGGSLRLSCAASGRIFIYNAMGWYRQAPGKETELVAAISSGGDTYYADSVKGRFTISRDNAKNTVYLQMNSLKPEDTAVYYCAARVYRYRGYDSWGQGTQVTVSS | high polyreactivity |
| QVQLVESGGGLVQAGGSLRLSCAASGRIFKGNGMGWYRQAPGKERELVAAISSGGTYYADSVKGRFTISRDNAKNTVYLQMNSLKPEDTAVYYCAAQHRGVQVTFGEYDYWGQGTQVTVSS | low polyreactivity |
| QVQLVESGGGLVQAGGSLRLSCAASGRIFKGYAMGWYRQAPGKERELVAAITISGGSTYYADSVKGRFTISRDNAKNTVYLQMNSLKPEDTAVYYCAARKFVYWYGMEYWGQGSQVTVSS | low polyreactivity |
| QVQLVESGGGLVQAGGSLRLSCAASGRIFKNYAMGWYRQAPGKERELVAAISWSGGRTYYADSVKGRFTISRDYAKNTVYLQMNSLKPEDTAVYYCASAARRGPTSIEPFGYGSWGQGTQVTVSS | high polyreactivity |
| QVQLVESGGGLVQAGGSLRLSCAASGRIFKPYALGWYRPAPGKERELVAALSWTGGRTRYADSVKGRFTISRDNAMNTVYLQMNSLKPEDTAVYYCAAYAIVRSYFIYDYWGQGTQVTVSS | high polyreactivity |
| QVQLVESGGGLVQAGGSLRLSCAASGRIFKRNAMGWYRQAPGKERELVAAISYSGGSTYYADSVKGRFTISRDNAKNTVYLQMNSLKPEDTAVYYCAAKYRPRGKSSWPYRRYDYWGQGTQVTVSS | high polyreactivity |
| QVQLVESGGGLVQAGGSLRLSCAASGRIFKRNTLGWYRQAPGKERELVAAITNSGITYYADSVKGRFTISRDNAKNTVYLQMNSLKPEDTAVYYCAARVIYYYGSGPYDYWGQGTQVTVSS | low polyreactivity |
| QVQLVESGGGLVQAGGSLRLSCAASGRIFKRNVMGWYRQAPGKERELVAAITLRGGSTYYADSVKGRFTISRDNAKNTVYLQMNSLKPEDTAVYYCAAVQGTYYWDDYWGQGTQVTVSS | low polyreactivity |
| QVQLVESGGGLVQAGGSLRLSCAASGRIFKRYVMGWYRQAPGKERELVAAISVRGASTYYADSVKGRFTISRDNAKNTVSLQMNSLKPEDTAVYYCATAGYRLLDYWGQGTQVTVSS | high polyreactivity |
| QVQLVESGGGLVQAGGSLRLSCAASGRIFKSNAMGWYRQAPGKERELVASISRSGSTNYADSVKGRFTLSRDNAKNTVYLQMNSLKPEDTAVYYCAKDPDAKGGGYDYWGQGTQVTVSS | low polyreactivity |
| QVQLVESGGGLVQAGGSLRLSCAASGRIFKSYAMGWYRQAPGKERELVAIIRSSGTTYYADSVKGRFTISRDNAKNTVYLQMNSLKPEDTAVYYCNADGYPLGDKYDYWGQGTQVTVSS | high polyreactivity |
| QVQLVESGGGLVQAGGSLRLSCAASGRIFKSYAMGWYRQAPGKERELVATISISGGSTYYADSVKGRFTISRDNAKNTVYLQMNSLKPEDTAVYYCAADRYGLGDYDYWGQGTQVTVSS | low polyreactivity |

| Sequence | polyreactivity (PSR sort gate) |
| --- | --- |
| QVQLVESGGGLVQAGGSLRLSCAASGRIFKSYVMGWYRQAPGKERELVAAISITGGSTYYADSVKGRFTISRDNAKNTVYLQMNSLKPEDTAVYYCAAGRSGQEDDYWGQGTQVTVSS | high polyreactivity |
| QVQLVESGGGLVQAGGSLRLSCAASGRIFKTNAMGWYRQAPGKERELVAAITWSGTSTYYADSVKWRYTISRDNEKITVYLQMNSLKPEDTAVYYCDAKQYARKYGFWGQGTQVTVSS | high polyreactivity |
| QVQLVESGGGLVQAGGSLRLSCAASGRIFKVNTMGWYRQAPGKERELVASIRGGGSTNYADSVKGRFTISRDNAKNTVFLQMNSLKPEDTAVYYCAVGPNSVGNRSYGFDYWGQGTQVTVSS | low polyreactivity |
| QVQLVESGGGLVQAGGSLRLSCAASGRIFKVNTMGWYRQAPGKERELVASIRGGGSTNYADSVKGRFTISRDNAKNTVYLQMNSLKPEDTAVYYCAAGTSKPTPIYGYWGQGTQVTVSS | low polyreactivity |
| QVQLVESGGGLVQAGGSLRLSCAASGRIFKVYAMGWYRQAPGKERELVAAINWSTGSTYYADSVKGRFTISRDNAKNTVYLQMNSLKPEDTAVYYCAAKNLYSYDWGQGTQVTVSS | high polyreactivity |
| QVQLVESGGGLVQAGGSLRLSCAASGRIFKVYAMGWYRQAPGKERELVASIRWNTGSTYYADSVKGRFTISRDNAKNSVYLQMNSLKPEDTAVYYCAATDWWGYYYWGQGTQVTVSS | high polyreactivity |
| QVQLVESGGGLVQAGGSLRLSCAASGRIFKWYAMGWSRQAPGKERELVAAITSGGSTYYADSVKGRFTISRDNAKNTVYVQMNSLKPEDTAVYYCNRYGVHRRDDYWGQGTQVTVSS | high polyreactivity |
| QVQLVESGGGLVQAGGSLRLSCAASGRIFKWYAMGWYRQAPGKEREFVAAINWNGDSTHYADSVKGRFTISRDNAKNTVYLQMNSLKPEDTAVYYCNARVFVTRSYYWGQGTQVTVSS | low polyreactivity |
| QVQLVESGGGLVQAGGSLRLSCAASGRIFKYNAMGWYRPAPGKERELVAAISGTGGSTYYADSVKGRFTISRDNAKNTVYLQMNSLKPEDTAVYYCNRRYYGHSTWKYDYWGQGTQVTVSS | high polyreactivity |
| QVQLVESGGGLVQAGGSLRLSCAASGRIFKYYAMGWYRQAPGKERELVAAISARGGSTYYADSVKGRFTISRDNAKNTVYFQMNSLKPEDTAVYYCAAPYLTTQYERMYYWGQGTQVTVSS | high polyreactivity |
| QVQLVESGGGLVQAGGSLRLSCAASGRIFKYYAMGWYRQAPGKERELVAAISASGGSTYYADSVKGRFTISRDNAKNTVYLQMNSLKPEDTAVYYCAAATRRKRIWTATTRSEYWGQGTQVTVSS | high polyreactivity |
| QVQLVESGGGLVQAGGSLRLSCAASGRIFKYYTMGWYRQAPGKERELVAAISRDDSTNYADSVKGRFTISRDNAKNTVYLQMNSLKPEDTAVYYCAKGYHQYAGFYYWGQGTQVTVSS | high polyreactivity |
| QVQLVESGGGLVQAGGSLRLSCAASGRIFKYYVMGWYRQPPGKERELVAGISSSGGSTYYADSVKGRFTISRDNAKNTVYLQMNSLKPEDTAVYYCAADYTFAYYNVKMDYWGQGTQVTVSS | low polyreactivity |
| QVQLVESGGGLVQAGGSLRLSCAASGRIFLFYAMGWYRQAPGKESELVAAISVRGGSTYYADSVKGRFTISRDNAKNTVYLQMNSLKPEDTAVYYCAADYPKTYTSKFNYWGQVTQVTVSS | high polyreactivity |
| QVQLVESGGGLVQAGGSLRLSCAASGRIFLGYAMGWYRQAPGKERELVARITLIGGGTNYADSVKGRFTISRDNAKNTVYLQMNSLKPEDTAVYYCAAKSPLRPWWVGAVSGNYWGQGTQVTVSS | low polyreactivity |
| QVQLVESGGGLVQAGGSLRLSCAASGRIFLGYAMGWYRQAPGKERELVATITWNSDGTYYADSVKGRFTISRDNAKNTVYLQMNSLKPEDTAVYYCATDEGWPWYYYWGQGTQVTVSS | low polyreactivity |
| QVQLVESGGGLVQAGGSLRLSCAASGRIFLHYAMGWYRQAPGKERELVAGITKSGSSTYYADSVKGRFTISRDNAKNTVYLQMNSLKPEDTAVYYCAARKIHHHVYGAWPRYGYWGQGTQVTVSS | high polyreactivity |
| QVQLVESGGGLVQAGGSLRLSCAASGRIFLLYLMGWYRQAPGKERELVADITFSGGSTYYADSVKGRFTISRDNEKHTVYLQMNSLKPEDTAVYYCAARLFAAKYRYGYWGQGTQVTVSS | high polyreactivity |
| QVQLVESGGGLVQAGGSLRLSCAASGRIFLPYAMGWYRQAPGKERELVAGISSGGSTKYADSVKGRFTISRDNAKNTVYLQMNSLKPEDTAVYYCNRRFPIYGSRFGYYYWGQGTQVTVSS | high polyreactivity |
| QVQLVESGGGLVQAGGSLRLSCAASGRIFLPYAMGWYRQAPGKERELVAVITGRGGSTYYADAVKGRFTISRDNAKNTVYLQMNSLQPEDTAVYYCAAAYYRGRGYYWGQGTQVSVSS | high polyreactivity |
| QVQLVESGGGLVQAGGSLRLSCAASGRIFLRNAMGWYRQAPGKERELVATITSRGGSTYYADSVKGRFTISRDNAKTTVYLQMNSLKPEDTAVYYCAADPRRYRGFGYVYGGFYYWGQGTQVTVSS | low polyreactivity |
